Measurements as given in US20200157212A1 (Pfizer, published 2020).
Read-outs that look alike come from different tables or passages of the source.

B1: Abcs5 (antibody, human IgG1, kappa, V domains shown)
VH: EVQLVQSGAEVKKPGASVKVSCKASGYTFTGYYMHWVRQAPGQGLEWMGWINPKNGDTEFPQKFQGRVTMTRDTSITTAYMDLSRLRSDDTAVYYCARESGDDAFDIWGQGTMVTVSS
VL: DIVMTQSPSSLSASVGDRVTITCRASQSISSYLNWYQQKPGKAPKLLIYAASSLQSGVPSRFSGSGSGTDFTLTISSLQPEDFATYYCQQSLELGFGGGTKVEIKR
notes: chain-shuffled IgG
B2: Abcs35-O (antibody, human IgG1, kappa)
heavy: QVQLVQSGAEVKKPGASVKVSCKASGYTFTGYYMHWVRQAPGQGLEWMGWINPKNGDTEFPQKFQGRVTMTRDTSISTAYMELSRLRSDDTAVYYCARESGDDAFDIWGQGTMVTVSSASTKGPSVFPLAPSSKSTSGGTAALGCLVKDYFPEPVTVSWNSGALTSGVHTFPAVLQSSGLYSLSSVVTVPSSSLGTQTYICNVNHKPSNTKVDKKVEPKSCDKTHTCPPCPAPEAAGAPSVFLFPPKPKDTLMISRTPEVTCVVVDVSHEDPEVKFNWYVDGVEVHNAKTKPREEQYNSTYRVVSVLTVLHQDWLNGKEYKCKVSNKALPAPIEKTISKAKGQPREPQVYTLPPSREEMTKNQVSLTCLVKGFYPSDIAVEWESNGQPENNYKTTPPVLDSDGSFFLYSKLTVDKSRWQQGNVFSCSVMHEALHNHYTQKSLSLSPGK
light: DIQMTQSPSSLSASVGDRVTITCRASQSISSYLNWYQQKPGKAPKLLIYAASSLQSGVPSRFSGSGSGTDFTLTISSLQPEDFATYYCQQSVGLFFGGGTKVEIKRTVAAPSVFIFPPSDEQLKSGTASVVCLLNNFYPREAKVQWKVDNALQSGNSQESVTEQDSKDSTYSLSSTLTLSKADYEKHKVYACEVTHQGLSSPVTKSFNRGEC
notes: germlined variant of Abcs35

Tests used:
[1] = target: T1, Terbium (Tb) labeled-SNAP tagged ROBO2 expressed on HEK293 cells (Homo sapiens (Human), UniProt Q9HCK4 22-1378, terbium label on the SNAP tag); assay: HTRF competition, competitor d2-SLIT2-N, ROBO2 HEK293 cells
T1 construct: also called Tb-labeled ROBO2 cells; ROBO2 expressing cells; not shown: SNAP tag
T1 sequence: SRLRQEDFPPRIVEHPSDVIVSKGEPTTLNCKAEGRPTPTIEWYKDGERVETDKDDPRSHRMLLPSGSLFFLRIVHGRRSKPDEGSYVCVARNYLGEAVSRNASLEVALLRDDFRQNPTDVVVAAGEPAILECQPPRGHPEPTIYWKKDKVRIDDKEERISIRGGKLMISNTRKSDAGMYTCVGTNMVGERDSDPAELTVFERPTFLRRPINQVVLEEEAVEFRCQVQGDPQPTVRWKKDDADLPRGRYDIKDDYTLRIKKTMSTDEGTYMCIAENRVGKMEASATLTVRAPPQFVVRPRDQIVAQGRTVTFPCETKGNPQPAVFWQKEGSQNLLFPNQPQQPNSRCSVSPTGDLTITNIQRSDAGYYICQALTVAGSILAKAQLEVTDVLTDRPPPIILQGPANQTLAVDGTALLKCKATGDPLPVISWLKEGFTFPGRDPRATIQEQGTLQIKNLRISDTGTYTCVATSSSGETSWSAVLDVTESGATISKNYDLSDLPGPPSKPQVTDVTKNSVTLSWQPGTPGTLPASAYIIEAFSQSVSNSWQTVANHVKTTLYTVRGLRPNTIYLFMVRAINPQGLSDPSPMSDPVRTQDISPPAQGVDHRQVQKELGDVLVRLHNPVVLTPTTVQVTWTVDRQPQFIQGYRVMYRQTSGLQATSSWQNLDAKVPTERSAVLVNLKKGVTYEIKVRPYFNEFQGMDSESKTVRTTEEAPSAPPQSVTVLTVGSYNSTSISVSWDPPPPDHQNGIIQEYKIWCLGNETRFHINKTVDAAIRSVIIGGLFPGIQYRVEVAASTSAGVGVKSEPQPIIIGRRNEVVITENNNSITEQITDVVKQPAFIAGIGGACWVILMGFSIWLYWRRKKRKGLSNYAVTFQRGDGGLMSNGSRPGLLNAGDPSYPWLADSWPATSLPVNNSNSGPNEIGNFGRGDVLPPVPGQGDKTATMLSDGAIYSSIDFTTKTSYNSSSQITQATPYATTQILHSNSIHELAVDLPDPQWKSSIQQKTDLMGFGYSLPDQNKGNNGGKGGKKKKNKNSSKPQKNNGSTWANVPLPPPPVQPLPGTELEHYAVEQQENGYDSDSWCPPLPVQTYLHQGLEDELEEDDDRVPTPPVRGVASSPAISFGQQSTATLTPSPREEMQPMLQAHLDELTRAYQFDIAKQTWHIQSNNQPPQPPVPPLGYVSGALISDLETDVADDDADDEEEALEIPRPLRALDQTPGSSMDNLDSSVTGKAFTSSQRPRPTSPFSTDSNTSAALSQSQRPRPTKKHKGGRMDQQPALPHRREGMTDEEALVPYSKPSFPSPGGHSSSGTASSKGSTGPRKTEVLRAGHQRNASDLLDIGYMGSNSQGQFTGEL
Method: (§1) Antibodies generated as a result of the affinity maturation campaign were screened by numerous assays for neutralization of SLIT2-N binding, selective binding to ROBO2 over ROBO1, and inhibition of SLIT2-N functional activity (see Table 2). A ROBO2-SLIT2-N homogenous time resolved fluorescence (HTRF) assay was used to identify antibodies that were capable of blocking SLIT2-N binding to ROBO2. In this assay, terbium (Tb) labeled-SNAP tagged ROBO2 expressing HEK293 cells were incubated with 5 nM d2-labeled SLIT-2N in the presence of 1 nM anti-ROBO2 antibodies for 1 hour. After incubation, fluorescence at 665 nm and 620 nm was measured on an Envision multilabel plate reader. […] Maximal signal was defined as the HTRF ratio of Tb-labeled ROBO2 cells with d2-labeled SLIT2-N in the absence of antibody, the minimum signal was defined as the HTRF ratio of Tb-labeled ROBO2 expressing HEK293 cells only. One nanomolar (nM) parental antibody, 93H2, was unable to block the HTRF assay, therefore this concentration was selected to identify clones with a higher affinity than 93H2 (Table 2, HTRF Ratio column). […] Antibodies derived from chain (Abcs series) or CDR shuffling (CTIR-2 series) were evaluated in 11-point, 5-fold dilution series with a top concentration of 1500 nM (Table 2 HTRF IC₅₀).

[2] = target: T2, Human ROBO1 RSK mutant overexpressed on HEK293 cells (human, UniProt Q9Y6N7 26-1651); assay: flow cytometry, Geo MFI ROBO1-RSK/ROBO2-KSR HEK293 cells, 2.5 µg/ml
T2 construct: K137R and R139K already in the entry; also called ROBO1-RSK cells

[3] = target: T1, Terbium (Tb) labeled-SNAP tagged ROBO2 …; assay: HTRF, 5 nM d2-SLIT2-N on Tb-SNAP-ROBO2 HEK293 cells, 1 nM antibody
Method: as §1, with “In” for “Antibodies generated as a result of the affinity maturation campaign were screened by numerous assays for neutralization of SLIT2-N binding, selective binding to ROBO2 over ROBO1, and inhibition of SLIT2-N functional activity (see Table 2). A ROBO2-SLIT2-N homogenous time resolved fluorescence (HTRF) assay was used to identify antibodies that were capable of blocking SLIT2-N binding to ROBO2. In”
HTRF assays were run with 5 nM d2-labeled SLIT2-N and antibodies were added at 1 nM. […] Antibodies derived from chain (Abcs series) or CDR shuffling (CTIR-2 series) were evaluated in 11-point, 5-fold dilution series with a top concentration of 1500 nM, N.T. = not tested; ^cFold selectivity was calculated as Geometric Mean Fluorescent Intensity (Geo MFI) of ROBO2/Geo MFI of ROBO1 binding.

[4] = target: T3, Human ROBO2 overexpressed on HEK293 cells (human, UniProt Q9HCK4 22-1378); assay: flow cytometry, Geo MFI ROBO2/ROBO1 HEK293 cells, 2.5 µg/ml
T3 construct: also called ROBO2 cells; native ROBO2
T3 sequence: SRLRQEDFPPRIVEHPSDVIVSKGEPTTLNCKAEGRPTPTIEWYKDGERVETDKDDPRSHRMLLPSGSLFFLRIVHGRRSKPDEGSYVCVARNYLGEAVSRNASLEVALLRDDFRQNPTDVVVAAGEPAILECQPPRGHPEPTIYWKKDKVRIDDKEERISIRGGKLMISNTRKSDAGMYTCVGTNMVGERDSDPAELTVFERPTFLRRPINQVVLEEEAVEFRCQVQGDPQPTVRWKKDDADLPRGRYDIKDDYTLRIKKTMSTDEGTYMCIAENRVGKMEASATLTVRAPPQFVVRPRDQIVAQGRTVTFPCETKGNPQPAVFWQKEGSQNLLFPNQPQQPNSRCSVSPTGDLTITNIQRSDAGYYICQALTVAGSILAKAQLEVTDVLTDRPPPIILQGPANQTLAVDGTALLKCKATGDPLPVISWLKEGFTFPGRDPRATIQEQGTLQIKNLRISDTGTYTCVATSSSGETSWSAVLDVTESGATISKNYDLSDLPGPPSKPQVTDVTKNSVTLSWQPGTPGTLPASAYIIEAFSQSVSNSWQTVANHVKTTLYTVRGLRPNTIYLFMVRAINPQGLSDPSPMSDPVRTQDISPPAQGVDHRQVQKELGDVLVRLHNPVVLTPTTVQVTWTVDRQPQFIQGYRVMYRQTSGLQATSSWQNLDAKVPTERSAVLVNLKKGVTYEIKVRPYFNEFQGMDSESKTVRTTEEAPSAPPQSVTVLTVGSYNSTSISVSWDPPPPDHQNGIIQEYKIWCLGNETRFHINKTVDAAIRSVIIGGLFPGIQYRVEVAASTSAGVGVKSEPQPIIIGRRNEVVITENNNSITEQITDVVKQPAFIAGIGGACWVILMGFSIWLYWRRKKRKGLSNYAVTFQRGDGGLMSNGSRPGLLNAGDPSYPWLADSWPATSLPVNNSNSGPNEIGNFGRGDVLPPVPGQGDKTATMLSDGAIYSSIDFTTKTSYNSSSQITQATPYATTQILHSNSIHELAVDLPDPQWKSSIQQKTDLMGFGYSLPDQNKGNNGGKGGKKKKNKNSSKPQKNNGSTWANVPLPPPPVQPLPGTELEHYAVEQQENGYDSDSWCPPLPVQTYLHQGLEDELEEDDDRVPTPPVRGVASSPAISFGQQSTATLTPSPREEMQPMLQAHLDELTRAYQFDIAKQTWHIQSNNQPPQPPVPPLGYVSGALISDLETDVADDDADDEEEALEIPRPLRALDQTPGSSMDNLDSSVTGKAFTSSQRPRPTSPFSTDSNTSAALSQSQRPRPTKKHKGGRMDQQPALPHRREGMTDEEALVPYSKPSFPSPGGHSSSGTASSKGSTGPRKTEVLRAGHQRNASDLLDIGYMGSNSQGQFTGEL
Method: Binding of the antibodies was detected using a secondary fluorochrome conjugated anti-human IgG F(ab′)₂ antibody and samples were analyzed on a Fortessa cytometer (BD Biosciences). The fold ROBO2 selectivity was calculated as the geometric mean fluorescence intensity (Geo MFI) with ROBO2 cells/Geo MFI with ROBO1 cells. A fold change higher than 3 was considered to be ROBO2 specific (Table 2, Fold Selectivity). Some affinity matured clones had increased ROBO1 reactivity, for example Abcs 55, CTI-R2-10 and CTIR2-13.
HTRF assays were run with 5 nM d2-labeled SLIT2-N and antibodies were added at 1 nM. […] Antibodies derived from chain (Abcs series) or CDR shuffling (CTIR-2 series) were evaluated in 11-point, 5-fold dilution series with a top concentration of 1500 nM, N.T. = not tested; ^cFold selectivity was calculated as Geometric Mean Fluorescent Intensity (Geo MFI) of ROBO2/Geo MFI of ROBO1 binding. […] Outcomes: results are listed in order of assays listed in the table (left to right), I.A. = Improved Affinity

[5] = target: T1, Terbium (Tb) labeled-SNAP tagged ROBO2 …; assay: HTRF competition, competitor d2-SLIT2-N, ROBO2 HEK293 cells; remark: listed apart in the source
Method: as §1, with “A” for “Antibodies generated as a result of the affinity maturation campaign were screened by numerous assays for neutralization of SLIT2-N binding, selective binding to ROBO2 over ROBO1, and inhibition of SLIT2-N functional activity (see Table 2). A”
Neutralization of SLIT2-N binding to ROBO2 was assessed ROBO2:SLIT2-N homogenous time resolved fluorescence (HTRF) assay as described in Example 2. Briefly the HTRF assay was performed as follows: terbium (Tb) labeled-SNAP tagged ROBO2 expressing HEK293 cells were incubated with d2-labeled SLIT-2N in the presence of anti-ROBO2 antibodies for 1 hour. After incubation, fluorescence at 665 nm and 620 nm was measured on an Envision multi-label plate reader. […] Maximal signal was defined as the HTRF ratio of Tb-labeled ROBO2 cells with d2-labeled SLIT2-N in the absence of antibody, the minimum signal was defined as the HTRF ratio of Tb-labeled ROBO2 expressing HEK293 cells only.

Human ROBO2 Ig1-Ig2-His = target: T4, Human ROBO2 Ig1-Ig2-His (human, UniProt Q9HCK4 31-220); assay: SPR, antibody on CM5 chip, ROBO2 Ig1-Ig2-His
T4 construct: the His tag is named only in the SPR paragraphs; the Octet and ELISA paragraphs print 'ROBO2 Ig1-Ig2' without a tag; also called ROBO2 Ig1-2; Human ROBO2 Ig 1,2
T4 sequence: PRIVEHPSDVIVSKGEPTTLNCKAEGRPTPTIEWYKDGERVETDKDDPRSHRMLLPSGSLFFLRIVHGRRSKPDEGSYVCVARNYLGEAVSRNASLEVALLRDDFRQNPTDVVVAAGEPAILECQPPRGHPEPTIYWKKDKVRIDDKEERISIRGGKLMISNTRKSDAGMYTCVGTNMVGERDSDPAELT
Method: Based upon several criteria, Abcs25 and Abcs35 were selected for further characterization. Using flow cytometry, improvement in the binding EC₅₀ to human ROBO2 relative to the parental 93H2 was evaluated. Starting at 6.7 nM, 11-point, 3-fold dilution series were made for each antibody and used to stain HEK293 overexpressing human ROBO2 as described above for the ROBO2 fold selectivity (Example 2). […] In addition to measuring improved binding to human ROBO2, it was important to ensure that high affinity binding to both cynomolgus monkey ROBO2 and rat ROBO2 was maintained. Using HEK293 cells overexpressing either cynomolgus monkey ROBO2 or rat ROBO2, the relative dose-dependent binding of 93H2, Abcs25 and Abcs35 was evaluated as described above. High affinity binding to both cynomolgus monkey and rat ROBO2 was maintained in Abcs25 and Abcs35 (Table 4). […] Briefly, Abcs35 was immobilized to 300 resonance units (RU) on a CM5 chip. Association of ROBO2 Ig1-Ig2-His (ROBO2) was measured over 5 minutes and dissociation was followed for a period of 10 minutes.
Affinity was measured by standard SPR methods as described in Example 3. Briefly, antibodies were immobilized to a specific measure of resonance units (RU) on a CM5 chip. Association of ROBO2 Ig1-Ig2-His (ROBO2) and dissociation will be followed for a period of time.

T2 sequence (Q9Y6N7 other isoform, or with tags, fused parts or gaps mutant limits assumed): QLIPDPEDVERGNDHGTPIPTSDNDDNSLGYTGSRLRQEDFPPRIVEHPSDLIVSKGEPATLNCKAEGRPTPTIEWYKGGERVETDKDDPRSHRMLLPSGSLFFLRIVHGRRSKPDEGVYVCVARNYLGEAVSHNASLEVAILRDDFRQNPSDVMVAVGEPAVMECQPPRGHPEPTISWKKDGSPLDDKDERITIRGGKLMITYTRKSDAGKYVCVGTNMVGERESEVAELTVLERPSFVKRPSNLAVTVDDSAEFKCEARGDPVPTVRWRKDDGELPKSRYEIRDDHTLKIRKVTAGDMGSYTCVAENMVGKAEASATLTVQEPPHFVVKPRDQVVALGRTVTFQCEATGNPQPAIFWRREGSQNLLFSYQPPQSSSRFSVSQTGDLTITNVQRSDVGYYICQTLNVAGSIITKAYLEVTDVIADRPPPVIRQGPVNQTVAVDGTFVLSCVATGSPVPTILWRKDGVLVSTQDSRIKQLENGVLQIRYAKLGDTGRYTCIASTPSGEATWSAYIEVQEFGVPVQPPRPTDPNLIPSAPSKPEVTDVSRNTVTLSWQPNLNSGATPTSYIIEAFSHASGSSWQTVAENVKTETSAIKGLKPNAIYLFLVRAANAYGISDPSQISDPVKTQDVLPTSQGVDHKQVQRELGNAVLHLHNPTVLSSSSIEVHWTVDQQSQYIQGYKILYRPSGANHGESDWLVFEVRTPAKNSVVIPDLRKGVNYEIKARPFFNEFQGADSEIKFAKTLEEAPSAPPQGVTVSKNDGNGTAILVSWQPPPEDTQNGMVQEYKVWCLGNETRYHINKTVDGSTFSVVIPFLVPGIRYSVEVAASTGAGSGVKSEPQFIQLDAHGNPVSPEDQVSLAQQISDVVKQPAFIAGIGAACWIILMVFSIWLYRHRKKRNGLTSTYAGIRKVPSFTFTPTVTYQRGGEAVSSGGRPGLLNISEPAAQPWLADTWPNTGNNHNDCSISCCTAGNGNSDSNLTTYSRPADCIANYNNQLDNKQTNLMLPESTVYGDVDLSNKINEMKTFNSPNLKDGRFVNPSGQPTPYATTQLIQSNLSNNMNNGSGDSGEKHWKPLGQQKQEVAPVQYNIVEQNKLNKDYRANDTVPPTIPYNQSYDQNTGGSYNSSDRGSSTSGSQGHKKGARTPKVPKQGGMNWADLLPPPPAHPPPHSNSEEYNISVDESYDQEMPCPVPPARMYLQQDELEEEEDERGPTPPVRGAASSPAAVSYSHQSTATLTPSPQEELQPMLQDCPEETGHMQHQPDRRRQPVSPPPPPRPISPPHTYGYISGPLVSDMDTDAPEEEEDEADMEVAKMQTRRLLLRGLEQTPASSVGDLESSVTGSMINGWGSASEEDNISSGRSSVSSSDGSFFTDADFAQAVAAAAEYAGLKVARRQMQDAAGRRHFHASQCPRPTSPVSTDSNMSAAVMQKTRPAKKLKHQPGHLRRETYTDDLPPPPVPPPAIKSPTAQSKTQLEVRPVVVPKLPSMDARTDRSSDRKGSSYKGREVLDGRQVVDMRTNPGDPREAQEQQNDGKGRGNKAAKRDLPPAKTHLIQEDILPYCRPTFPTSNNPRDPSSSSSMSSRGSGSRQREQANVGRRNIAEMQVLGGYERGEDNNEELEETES

Binder | IC50 [1] [nM] | Fold Selectivity for RSK/KSR [2] [fold] | HTRF Ratio [3] | Fold Selectivity for ROBO2/ROBO1 [4] [fold] | IC50 [5] [nM] | Kd (Human ROBO2 Ig1-Ig2-His) [nM]
B1 | 0.036 | 6.7 | 3540 | 5.1 |  | 
B2 |  |  |  |  | 0.0624 | 0.217
